According to paper PMC5957528, “Boosting ATM activity alleviates aging and extends lifespan in a mouse model of progeria” (eLife, 2018):

Key:
SIRT6 = SIRT6 (UniProt Q8N6T7); assay: anti-HA co-IP, ATM immunoblot; settings: reference: Flag-ATM wild type; sites S1981
MDM2 = MDM2 (UniProt Q00987); assay: anti-Flag co-IP, MDM2 immunoblot; settings: reference: Flag-SIRT6 wild type; sites S112
His-SIRT6 = target: T1, His-SIRT6 (human, UniProt Q8N6T7 1-355); assay: pull-down; GST pull-down: bacterially expressed 6 × His SIRT6 incubated separately with GST-ATM fragments in 150 mM NaCl, 20 mM Tris-HCl pH 7.5, 5 mM MgCl2, 0.2 mM EDTA, 10% glycerol, 0.2% NP-40; Glutathione Sepharose; washed with TEN buffer (300 mM NaCl); settings: both partners purified
T1 construct: SIRT6, human; also called 6 × His tagged SIRT6; purified His-SIRT6; source: bacterially expressed, purified
T1 sequence (Q8N6T7 whole entry, the tested form may be a part): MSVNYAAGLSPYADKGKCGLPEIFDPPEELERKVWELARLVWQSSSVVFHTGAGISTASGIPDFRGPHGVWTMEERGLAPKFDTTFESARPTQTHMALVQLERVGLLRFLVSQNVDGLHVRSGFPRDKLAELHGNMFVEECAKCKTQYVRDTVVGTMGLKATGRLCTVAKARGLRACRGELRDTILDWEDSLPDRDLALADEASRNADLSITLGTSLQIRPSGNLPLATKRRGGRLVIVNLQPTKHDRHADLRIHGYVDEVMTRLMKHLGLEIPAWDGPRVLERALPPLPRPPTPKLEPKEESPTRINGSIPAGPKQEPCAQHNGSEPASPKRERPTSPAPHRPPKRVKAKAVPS

## ATM (from UniProt Q13315) Flag-ATM S1981A
SIRT6
  binding against the reference: lost

## SIRT6 (from UniProt Q8N6T7) Flag-SIRT6 S112A
MDM2
  binding against the reference: stronger

B1: GST-ATM-4 (residues 770–1102) (domain or fragment, human, UniProt Q13315 770-1102, looked up)
chain: EFRIGSLRNMMQLCTRCLSNCTKKSPNKIASGFFLRLLTSKLMNDIADICKSLASFIKKPFDRGEVESMEDDTNGNLMEVEDQSSMNLFNDYPDSSVSDANEPGESQSTIGAINPLAEEYLSKQDLLFLDMLKFLCLCVTTAQTNTVSFRAADIRRKLLMLIDSSTLEPTKSLHLHMYLMLLKELPGEEYPLPMEDVLELLKPLSNVCSLYRRDQDVCKTILNHVLHVVKNLGQSNMDSENTRDAQGQFLTVIGAFWHLTKERKYIFSVRMALVNCLKTLLEADPYSKWAILNVMGKDFPVNEVFTQFLADNHHQVRMLAAESINRLFQDTKG
notes: source: recombinant GST fusion (pGEX4T-3 vector)
His-SIRT6
  binding result: binds
